{
  "source": "patent US20260209383A1",
  "about": "“SITE-[…] […] ANTIBODY DRUG CONJUGATES” (SEAGEN INC., priority 2022, published 2026)",
  "molecules": {"B1": {"name": "h2A2-mc-vc-MMAE(4): conventional anti-ITGB6 ADC, h2A2 without engineered cysteines conjugated with mc-vc-MMAE; positive control (conjugate)", "VH": "QFQLVQSGAEVKKPGASVKVSCKASGYSFTDYNVNWVRQAPGQGLEWIGVINPKYGTTRYNQKFKGRATLTVDKSTSTAYMELSSLRSEDTAVYYCTRGLNAWDYWGQGTLVTVSS", "VL": "DIQMTQSPSSLSASVGDRVTITCGASENIYGALNWYQQKPGKAPKLLIYGATNLEDGVPSRFSGSGSGRDYTFTISSLQPEDIATYYCQNVLTTPYTFGQGTKLEIK"}},
  "key": {"BxPC-3 cells": {"test_system": "BxPC-3 cells", "assay": "In vitro cytotoxicity assay (CellTiter-Glo), BxPC-3", "assay_type": "cell-based", "protocol": "(§1) In vitro cytotoxicity assay: The cytotoxic effect of an EC4-based ADC was measured by a cell proliferation assay employing the protocol in the Promega Corp. Technical Bulletin TB288; and Mendoza et a1., 2002, Cancer Res. 62:5485-5488), the methods of which are specifically incorporated by reference herein. Briefly, an aliquot of 40 μl of cell culture containing about 400 cells in medium was deposited in each well of a 384-well, opaque-walled plate. A 10 μL aliquot of free cytotoxic agent or ADC was added to the experimental wells and incubated for 96 hr and then incubated at room temperature for approximately 30 mins whereupon a volume of CellTiter-Glo™ reagent equal to the volume of cell culture medium present in each well was added. The contents were mixed for 2 mins on an orbital shaker to induce cell lysis and the plate was incubated at room temperature for 10 mins to stabilize the luminescence signal for recordation.\nAnti-ITGB6 ADCs were tested for potency. The antibodies were engineered with the cysteine pairs disclosed above in the previous Examples. The efficacy of anti-ITGB6 EC4 ADCs were also tested against conventional anti-ITGB6 ADCs. The cells were treated with conventional or EC4 ADCs, then the remaining cells were counted to assess the cytotoxic effects of each EC4 variant compared to conventional ADCs. […] Cytotoxicity in BxPC-3 cells increased when the cells were treated with greater than 50 ng/mL of the positive control, conventional anti-ITGB6 ADCs (h2A2-mc-vc-MMAE). […] Both h2A2-mc-vc-MMAE and h2A2 S400C S114C-mc-vc-MMAE were cytotoxic to HPAFII cells when greater than 10 ng/mL ADC were used on the cells."}, "HPAFII cells": {"test_system": "HPAFII cells", "assay": "In vitro cytotoxicity assay (CellTiter-Glo), HPAFII", "assay_type": "cell-based", "protocol": "as §1\nAnti-ITGB6 ADCs were tested for potency. The antibodies were engineered with the cysteine pairs disclosed above in the previous Examples. The efficacy of anti-ITGB6 EC4 ADCs were also tested against conventional anti-ITGB6 ADCs. The cells were treated with conventional or EC4 ADCs, then the remaining cells were counted to assess the cytotoxic effects of each EC4 variant compared to conventional ADCs. […]"}},
  "data": [
    {"molecule": "B1", "values": [
      {"measurement": "% viability at top concentration", "setting": "BxPC-3 cells; BXPC3", "value": 36, "unit": "%"},
      {"measurement": "x50", "setting": "BxPC-3 cells; BXPC3, 96 hr", "value": 251, "unit": "ng/mL"},
      {"measurement": "ADC concentration above which cytotoxicity increased", "setting": "BxPC-3 cells; BxPC-3 cells", "value": "greater than 50 ng/mL"},
      {"measurement": "% viability at top concentration", "setting": "HPAFII cells", "value": 35, "unit": "%"},
      {"measurement": "x50", "setting": "HPAFII cells; 96 hr", "value": 199, "unit": "ng/mL"}
    ]}
  ]
}
